Results on 18 molecules are retold here after US20260242478A1 (published 2026).

Test [1] addresses T1, PSMA Fab (006 PSMA Fab).
T1 construct: also called Anti-PSMA Fab; anti-PSMA Fab
Put plainly: phage ELISA; biotinylated PSMA Fab on neutravidin plate, clonal phage supernatant, anti-M13 HRP detection; blocking buffer alone. Background: In an ELISA, binding on a coated surface is turned into a signal by an enzyme label.
Protocol: (§1) Clonal phage were harvested as crude supernatants and screened via standard ELISAs. […] Prior to the addition of clonal phage. wells were incubated with blocking buffer and PSMA antigen or blocking buffer alone. Without washing or aspirating, clonal phage supernatants were then added to the wells and incubated for a short time. Wells were then washed followed by detection of bound phage using a horse radish conjugated anti-M13 antibody.

Test [2] concerns the target T1, PSMA Fab (006 PSMA Fab). Put plainly: phage ELISA; biotinylated PSMA Fab on neutravidin plate pre-incubated with PSMA antigen as competitor, clonal phage supernatant, anti-M13 HRP detection.
Protocol: as §1
Test [3] concerns the target T2, 006 PSMA Fab.
T2 construct: In the phage ELISA the Fab was biotinylated and captured on neutravidin coated plates; also called Anti-PSMA Fab
In words: clonal phage ELISA on biotinylated PSMA Fab captured on neutravidin, wells pre-incubated with PSMA antigen as competitor, anti-M13 HRP detection.
Protocol: as §1

For test [4], the target named is T2, 006 PSMA Fab. Put plainly: clonal phage ELISA on biotinylated PSMA Fab captured on neutravidin, anti-M13 HRP detection, no competitor.
Protocol: as §1

B1: Phage-3056 (peptide)
peptide: IEMMCRPSWMCDWL
notes: Peptide-180 library clone, tested as clonal phage supernatant (peptide fused to pIII of the bacteriophage)
With B1, the “Phage binding ELISA signal, Anti-PSMA Fab” value with PSMA Fab (006 PSMA Fab) [1] stood at 2.16. In addition, the “Phage binding ELISA signal, Anti-PSMA Fab in the presence of PSMA antigen” value (“Phage binding ELISA signal … of PSMA antigen” for short) with PSMA Fab (006 PSMA Fab) [2] was 0.0844.

B2: Phage-3058 (peptide)
peptide: DWVRCVPEWMCLGF
notes: as for B1
As for B2, in the test with PSMA Fab (006 PSMA Fab) [1], the “Phage binding ELISA signal, Anti-PSMA Fab” value is 2.15. The “Phage binding ELISA signal … of PSMA antigen” value with PSMA Fab (006 PSMA Fab) [2] came to 0.106.

B3: Phage-3059 (peptide)
peptide: EFAMCRPVWMCWGF
notes: as for B1
In the case of B3, in the test with PSMA Fab (006 PSMA Fab) [1], the “Phage binding ELISA signal, Anti-PSMA Fab” value worked out at 2.15. In addition, the “Phage binding ELISA signal … of PSMA antigen” value with PSMA Fab (006 PSMA Fab) [2] was determined as 0.142.

B4: Phage-3067 (peptide)
peptide: LLAECVAAWMCSGF
Regarding B4, the “Phage binding ELISA signal, Anti-PSMA Fab with PSMA antigen” value in the test with 006 PSMA Fab [3] was determined as 0.0712. In addition, the “Phage binding ELISA signal, Anti-PSMA Fab” value in the test with 006 PSMA Fab [4] is 2.13.

B5: Phage-3053 (peptide)
peptide: VAPSCVPLWMCVGM
notes: as for B1
Turning to B5, the “Phage binding ELISA signal, Anti-PSMA Fab” value with PSMA Fab (006 PSMA Fab) [1] was 2.16. For the same molecule, the “Phage binding ELISA signal … of PSMA antigen” value with PSMA Fab (006 PSMA Fab) [2] worked out at 0.68.

B6: Phage-3055 (peptide)
peptide: PVELCRPAWMCWGF
notes: as for B1
B6: in the test with PSMA Fab (006 PSMA Fab) [1], the “Phage binding ELISA signal, Anti-PSMA Fab” value is 2.16. For the same molecule, in the test with PSMA Fab (006 PSMA Fab) [2], the “Phage binding ELISA signal … of PSMA antigen” value was found to be 0.103.

B7: Phage-3060 (peptide)
peptide: EEKMCVPLWMCSGF
Take B7: the “Phage binding ELISA signal, Anti-PSMA Fab with PSMA antigen” value in the test with 006 PSMA Fab [3] came to 0.0787. The “Phage binding ELISA signal, Anti-PSMA Fab” value in the test with 006 PSMA Fab [4] worked out at 2.15.

B8: Phage-3061 (peptide)
peptide: ITKACIPEWMCHAF
On to B8, for which the “Phage binding ELISA signal, Anti-PSMA Fab with PSMA antigen” value with 006 PSMA Fab [3] stood at 0.0651. In addition, the “Phage binding ELISA signal, Anti-PSMA Fab” value with 006 PSMA Fab [4] was found to be 2.15.

B9: Phage-3064 (peptide)
peptide: VVPMCSPSWMCQGF
Take B9: the “Phage binding ELISA signal, Anti-PSMA Fab with PSMA antigen” value in the test with 006 PSMA Fab [3] was found to be 0.0725. The “Phage binding ELISA signal, Anti-PSMA Fab” value with 006 PSMA Fab [4] amounted to 2.14.

B10: Phage-3062 (peptide)
peptide: VQVLCVPSWMCHGF
As for B10, the “Phage binding ELISA signal, Anti-PSMA Fab with PSMA antigen” value with 006 PSMA Fab [3] amounted to 0.0688. In addition, the “Phage binding ELISA signal, Anti-PSMA Fab” value with 006 PSMA Fab [4] stood at 2.15.

B11: Phage-3065 (peptide)
peptide: GMVRCVPQWMCVGF
Turning to B11, the “Phage binding ELISA signal, Anti-PSMA Fab with PSMA antigen” value with 006 PSMA Fab [3] was found to be 0.111. The “Phage binding ELISA signal, Anti-PSMA Fab” value with 006 PSMA Fab [4] stood at 2.14.

B12: Phage-3052 (peptide)
peptide: DMRLCRPVWMCEGF
notes: as for B1
Regarding B12, the “Phage binding ELISA signal, Anti-PSMA Fab” value with PSMA Fab (006 PSMA Fab) [1] is 2.16. For the same molecule, the “Phage binding ELISA signal … of PSMA antigen” value with PSMA Fab (006 PSMA Fab) [2] came out at 0.13.

B13: Phage-3068 (peptide)
peptide: LSHMCRPAWMCEGF
As to B13, the “Phage binding ELISA signal, Anti-PSMA Fab with PSMA antigen” value in the test with 006 PSMA Fab [3] came out at 0.0938. Besides, the “Phage binding ELISA signal, Anti-PSMA Fab” value with 006 PSMA Fab [4] was 2.13.

B14: Phage-3057 (peptide)
peptide: TGPVCIPKWMCFGF
notes: as for B1
For the molecule B14, the “Phage binding ELISA signal, Anti-PSMA Fab” value in the test with PSMA Fab (006 PSMA Fab) [1] amounted to 2.15. Also, the “Phage binding ELISA signal … of PSMA antigen” value with PSMA Fab (006 PSMA Fab) [2] was found to be 0.075.

B15: Phage-3066 (peptide)
peptide: VERSCVPSWMCYGF
Consider B15, for which the “Phage binding ELISA signal, Anti-PSMA Fab with PSMA antigen” value in the test with 006 PSMA Fab [3] was determined as 0.0806. The “Phage binding ELISA signal, Anti-PSMA Fab” value with 006 PSMA Fab [4] stood at 2.14.

B16: Phage-3051 (peptide)
peptide: PGQVCIPEWMCTGF
notes: as for B1
With B16, the “Phage binding ELISA signal, Anti-PSMA Fab” value in the test with PSMA Fab (006 PSMA Fab) [1] was found to be 2.16. Moreover, in the test with PSMA Fab (006 PSMA Fab) [2], the “Phage binding ELISA signal … of PSMA antigen” value came to 0.0874.

B17: Phage-3054 (peptide)
peptide: DWIRCLPAWMCTGF
notes: as for B1
Take B17: the “Phage binding ELISA signal, Anti-PSMA Fab” value with PSMA Fab (006 PSMA Fab) [1] was found to be 2.16. For the same molecule, the “Phage binding ELISA signal … of PSMA antigen” value in the test with PSMA Fab (006 PSMA Fab) [2] stood at 0.0848.

B18: Phage-3063 (peptide)
peptide: VEIQCRPSWMCMGF
For B18, the “Phage binding ELISA signal, Anti-PSMA Fab with PSMA antigen” value with 006 PSMA Fab [3] came to 0.0951. The “Phage binding ELISA signal, Anti-PSMA Fab” value with 006 PSMA Fab [4] was determined as 2.14.
